Test results as given in patent US20230280343A1.

Molecular target: p300 (UniProt Q09472)
Test: not stated; comparator to the H-MAP-1 ELISA

Chain of p300 (Q09472 323-423 limits assumed): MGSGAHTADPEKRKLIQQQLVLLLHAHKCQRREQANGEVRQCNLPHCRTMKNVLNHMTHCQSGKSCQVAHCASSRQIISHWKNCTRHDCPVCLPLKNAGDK

## native HIF1α protein (from UniProt Q16665 786-826)
  Kd: 0.38 nM
